The values below come from patent US20040132121A1, “Method of identifying antibacterial compounds” (priority 2000, published 2004).

This test has as its target Escherichia coli β subunit of DNA Polymerase III (β protein) (Escherichia coli), P0A988.

“And” between values parts separate entries of the source, which are not always exact repeats. Equal values may be shown once.

Chain of Escherichia coli β subunit of DNA Polymerase III (β protein) (Escherichia coli), P0A988 (P0A988 whole entry): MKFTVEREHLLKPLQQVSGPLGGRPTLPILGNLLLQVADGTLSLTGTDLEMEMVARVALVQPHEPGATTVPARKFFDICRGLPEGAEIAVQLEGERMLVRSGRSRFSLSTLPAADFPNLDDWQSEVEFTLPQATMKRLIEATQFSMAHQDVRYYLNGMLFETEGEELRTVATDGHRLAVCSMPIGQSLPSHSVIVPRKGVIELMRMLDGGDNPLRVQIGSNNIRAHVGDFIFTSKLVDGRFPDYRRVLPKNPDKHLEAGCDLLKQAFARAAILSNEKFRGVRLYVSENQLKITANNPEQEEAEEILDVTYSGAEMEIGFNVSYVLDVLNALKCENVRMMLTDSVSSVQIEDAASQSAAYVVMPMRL

Consider EAQLDLFDS (modifications not checked) [peptide 112d … (UmuC1, native flanking sequences)], for which the IC50 was 1 µM and 3.6 µM.
